Test results from publication PMC10980356 (The Plant Cell, 2023).

T1: MLO2-NLuc (A. thaliana, UniProt Q9SXB6 1-573)
T1 sequence: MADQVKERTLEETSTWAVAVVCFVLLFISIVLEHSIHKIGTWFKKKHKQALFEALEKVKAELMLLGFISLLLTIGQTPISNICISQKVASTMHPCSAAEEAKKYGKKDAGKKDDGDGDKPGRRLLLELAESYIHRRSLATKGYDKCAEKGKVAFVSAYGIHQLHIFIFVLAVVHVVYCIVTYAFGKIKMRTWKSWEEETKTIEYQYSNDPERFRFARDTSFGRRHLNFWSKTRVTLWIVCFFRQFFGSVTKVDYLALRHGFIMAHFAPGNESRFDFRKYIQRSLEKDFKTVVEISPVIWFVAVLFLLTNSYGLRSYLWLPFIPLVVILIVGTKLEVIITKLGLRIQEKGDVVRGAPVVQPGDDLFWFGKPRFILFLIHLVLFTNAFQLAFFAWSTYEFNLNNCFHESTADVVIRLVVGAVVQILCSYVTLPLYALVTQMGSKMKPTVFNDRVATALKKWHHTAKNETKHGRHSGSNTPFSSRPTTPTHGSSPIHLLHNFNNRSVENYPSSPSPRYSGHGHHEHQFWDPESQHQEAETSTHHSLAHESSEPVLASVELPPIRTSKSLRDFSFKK

T2: MLO12-NLuc (A. thaliana, UniProt O80961 1-576)
T2 sequence: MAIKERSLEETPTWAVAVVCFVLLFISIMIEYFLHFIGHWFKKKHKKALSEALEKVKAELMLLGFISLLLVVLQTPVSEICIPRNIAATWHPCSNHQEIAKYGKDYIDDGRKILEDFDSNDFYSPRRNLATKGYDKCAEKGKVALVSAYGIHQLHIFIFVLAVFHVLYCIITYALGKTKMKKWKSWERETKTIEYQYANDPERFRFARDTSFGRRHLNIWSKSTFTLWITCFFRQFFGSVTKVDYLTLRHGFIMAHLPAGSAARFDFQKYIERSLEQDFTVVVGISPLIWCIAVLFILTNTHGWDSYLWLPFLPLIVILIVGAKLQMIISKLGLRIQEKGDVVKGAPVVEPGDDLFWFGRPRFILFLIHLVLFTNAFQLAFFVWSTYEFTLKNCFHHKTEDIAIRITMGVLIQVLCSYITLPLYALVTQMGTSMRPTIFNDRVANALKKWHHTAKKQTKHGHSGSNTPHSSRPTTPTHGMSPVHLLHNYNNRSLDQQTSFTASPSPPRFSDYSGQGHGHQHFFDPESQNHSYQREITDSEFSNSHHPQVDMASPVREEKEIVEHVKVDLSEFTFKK

T3: MLO6-NLuc (A. thaliana, UniProt Q94KB7 1-583)
T3 sequence: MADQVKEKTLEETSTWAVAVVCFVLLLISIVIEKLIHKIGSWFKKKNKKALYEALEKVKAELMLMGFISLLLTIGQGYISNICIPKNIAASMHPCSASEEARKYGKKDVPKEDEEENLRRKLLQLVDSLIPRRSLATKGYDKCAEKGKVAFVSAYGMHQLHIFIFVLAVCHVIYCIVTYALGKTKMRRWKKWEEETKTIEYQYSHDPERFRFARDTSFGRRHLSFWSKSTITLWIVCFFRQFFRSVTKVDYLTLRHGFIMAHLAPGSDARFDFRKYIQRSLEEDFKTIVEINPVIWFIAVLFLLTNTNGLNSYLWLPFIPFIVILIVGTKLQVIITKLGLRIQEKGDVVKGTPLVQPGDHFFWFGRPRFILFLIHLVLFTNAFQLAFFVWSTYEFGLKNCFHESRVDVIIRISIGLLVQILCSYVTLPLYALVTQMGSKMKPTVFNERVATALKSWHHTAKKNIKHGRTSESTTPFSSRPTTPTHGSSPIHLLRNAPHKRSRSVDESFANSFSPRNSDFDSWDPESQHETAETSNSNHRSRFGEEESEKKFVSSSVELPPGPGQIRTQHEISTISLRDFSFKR


Key:
Assay in all cases: split reporter
MLO2-NLuc = biological target: T1, MLO2-NLuc
MLO12-NLuc = biological target: T2, MLO12-NLuc
MLO6-NLuc = biological target: T3, MLO6-NLuc

Binder | relative luminescence (in relation to the calmodulin positive control) (MLO2-NLuc) | relative luminescence (in relation to the calmodulin positive control) (MLO12-NLuc) | relative luminescence (in relation to the calmodulin positive control) (MLO6-NLuc)
CLuc-EXO70H1 (natural protein) MAKMAKFSFFSSSSPKYHPSSPSSFTSFPASPLNQNFTQAMMEETVETADSVIRKWDPNTPSFTKIVSLFNHSRKEAKEFIRCVRDLRRAMHFLVSQDSQSPKLALAQTLMQIAMARLEKEFFQILSSNRDKLDPESVSGQSSISSNSEFEDVMGSDDDDESDNEMRKAGESITQVEKASAMVMSDLKAIAESMISCGYGKECVKIYKRVRKSIVDEGLSLLGIEIYKGSRFHRTDWVTLEHMIKNWIKAAKIGIATLFRGEKLLCDHVFSASNSTRESCFYEIANEAATNLFKFPEFVAKEKKSHERIFPLMDLQAAISDLWQDIEMIFHFDAVAGVKSQALTSLQKLKVSIHSALTDFESIIQKDTTKALTPGGGIHKLTRSTMNFISSLSKYSGVLSEILADHPLPRNTRLLESYVRAPISEDEQHNHALSVHFAWLILVLLCKLDTKAEHYKDVSLSYLFLANNLQIIIETVGSTPLRNLLGDDWLNKHEDKLCAYAGNYEIAAWSNVFMSLPEEPTDLSPEEAKIYFRRFHTAFEEAYMKQSSRVVPNAKLRDELKVSIAKKLVPEYREFYRKYLPMLGQERNIEILVRFKPDNLENYISDLFHGTPIHASSSFSSSSSSSSWKSLGCVSG | ~0.39 | ~0.37 | 
CLuc-EXO70B2 (natural protein) MAEAGDENLYAAARDIARALGKDPSAAGDILQILSGYGASGNRGGDPRPTPSRGGSNVNFDRALTSLERQISSYIVEDRPIWSDPVDSRTFLDSVDELLAIAGDLRSMAGDKSVAVCQSRADELIQQVMFRLQEEFGFVMDRAPDSFDSDDEFPGEEDNDTSDGVIVARPITDYKIVIEALQSSVIGDLNAIAVRMVAGGFAKECSRVYSSRRREFLEESLSRLHLRGLSMEEVQESPWQDLEDEIDRWIKAVTLIFHVFFPSERLLCDRVFSDLPVSSVTDLSFMEVCRGTTTQLLNFADAIALGSRLPERLFKVVDLYEAMQDLIPKMETLFSDRYCSPLRHEALAIHKRLGEAIRGIFMELENLIRRDPPKTAFPGGGIHPITRYVMNYLRAACKSRQSLEQILDQTGNETGSDTRPLSVQIIWVLELLESNLEGKKRTYRDPSLCFLFMMNNDKYILDKAKDNELGLVLGEDWIVKHAAKLRQYHSNYRRSSWNQVVGLLRTDGPYPKLVENLRLFKSQFDEVCKVQSQWVVSDGQLREELRSSVAGIVSPAYSNFIRRLKESPEINGRRGEPFIPYTVEDVEFIIKRLFKESSS | ~0.56 |  | 
CLuc-EXO70H4 (natural protein) MMTRKAMINICCVATTPSKYPPPPPLTLTPRQSLESAAIYGVIESAADIIERWNTETNTFAKVTCMFYENKPEAMMFIERVKDLQKTMDVLVSEDPNSERLLRSHKLMQIAMKRLQKEFYQILSMNRAYLDPESVSTRSSLTSARSSYSDFPDYVEDLDTIIELEEVSTNVMTDLKSIAECMIGSGYAKECLSIYKSIRKSIIDEGIYRLEVEKTSTGKVKKMSWEVMELKIRSWLKAVKVSMETLFKGEKILCDHVFESSDAIRESCFSDISRDGALLLFGFPEIINTKTSKKHSPPEKVFRLLDMYTAIAGNWQAIESIFSFDSISVVRSLALKSLISLSESIRSLLVEFESGIQKDSSKVVVPGGGVHPLTISVMDHLSLLADYSNVLVDILAGSPPPDRSLLPESYFNVSESDDSPSSELTIRFAWIILVLLCKIDRKSIHYKDFSIQYLFLTNNLQHVVSRARSSNLKNLLGEDWITRHFAKMRQFAGSYKRLAWGPVVATLPENRTVEMTPEEVKERFEKFSESFENAYSKHSVCVVADPNIRDEIKVSISRKLVPIYREFYNTRGSVILGEGDGARNLNSVVRFTPEDIENYLSDLFREKGSSGNSSASSPSSCRSRQSMS | ~0.4 |  | ~0.67
